Assay results published in patent publication US20150152159A1.

Target: human growth hormone receptor on IM-9 cells (human) (UniProt P10912)
Test: not given

Chain of UniProt P10912 (P10912 19-638): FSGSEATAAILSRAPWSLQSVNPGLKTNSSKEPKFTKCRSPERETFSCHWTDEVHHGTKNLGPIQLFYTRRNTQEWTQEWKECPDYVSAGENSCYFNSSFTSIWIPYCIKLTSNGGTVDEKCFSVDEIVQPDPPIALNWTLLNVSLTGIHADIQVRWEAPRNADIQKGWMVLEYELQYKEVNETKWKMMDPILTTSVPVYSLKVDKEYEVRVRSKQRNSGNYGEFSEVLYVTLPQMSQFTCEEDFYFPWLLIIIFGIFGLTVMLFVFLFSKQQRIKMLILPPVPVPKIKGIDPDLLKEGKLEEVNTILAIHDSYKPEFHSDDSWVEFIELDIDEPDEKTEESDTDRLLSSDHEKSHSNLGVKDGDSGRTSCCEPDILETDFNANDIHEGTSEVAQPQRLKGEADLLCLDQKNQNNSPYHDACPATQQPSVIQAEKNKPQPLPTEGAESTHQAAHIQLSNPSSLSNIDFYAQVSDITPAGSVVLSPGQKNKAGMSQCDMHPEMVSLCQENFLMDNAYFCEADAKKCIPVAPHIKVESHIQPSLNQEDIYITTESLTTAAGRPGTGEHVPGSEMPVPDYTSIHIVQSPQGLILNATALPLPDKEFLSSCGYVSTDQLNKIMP

| EC50, STAT5 phosphorylation in IM-9 cells (MFI of PE, intracellular phospho-STAT5 staining) [nM] | Substance |
| --- | --- |
| 4.1 | (His)F92-pAF-30K (ligand) |
| 1.5 | (His)F92pAF-5K (from UniProt P09466) (ligand) |
| 4.6 | (His)F92pAF-20K (from UniProt P09466) (ligand) |
| 0.9 | hGH F92pAF (from UniProt P01241 27-217) (ligand) |

Target: human growth hormone receptor on IM-9 cells (human) (UniProt P10912)
Test: not given
Remark: another data set of the same source

| EC50, STAT5 phosphorylation in IM-9 cells (MFI of PE, intracellular phospho-STAT5 staining) [nM] | Substance |
| --- | --- |
| 1.1 | hGH F92pAF (from UniProt P01241 27-217) (ligand) |

Target: human growth hormone receptor on IM-9 cells (human) (UniProt P10912)
Test: cell-based or functional assay

| EC50 (nM), STAT5 phosphorylation in IM-9 cells [nM] | Substance |
| --- | --- |
| 3.3 | hGH F139pAF (from UniProt P01241 27-217) (ligand) |
| 0.8 | hGH G131pAF (from UniProt P01241 27-217) (ligand) |
| 2.7 | hGH K140pAF (from UniProt P01241 27-217) (ligand) |
| 1 | hGH P133pAF (from UniProt P01241 27-217) (ligand) |
| 0.9 | hGH T135pAF (from UniProt P01241 27-217) (ligand) |
| 130000 | hGH Y103pAF (from UniProt P01241 27-217) (ligand) |

The remaining lines, values behind:

| Substance | EC50 (nM), STAT5 phosphorylation in IM-9 cells [nM] |
| --- | --- |
| His-tagged hGH Y143pAF (from UniProt P01241 27-217) (ligand) | 0.8 |
| hGH A155pAF (from UniProt P01241 27-217) (ligand) | 1.3 |
| hGH E88pAF (from UniProt P01241 27-217) (ligand) | 0.9 |
| hGH F92pAF (from UniProt P01241 27-217) (ligand) | 0.8 |
| hGH G136pAF (from UniProt P01241 27-217) (ligand) | 1.4 |
| hGH N99pAF (from UniProt P01241 27-217) (ligand) | 8.5 |
| hGH Q91pAF (from UniProt P01241 27-217) (ligand) | 2 |
| hGH R134pAF (from UniProt P01241 27-217) (ligand) | 0.9 |
| hGH S95pAF (from UniProt P01241 27-217) (ligand) | 16.7 |
| hGH Y111pAF (from UniProt P01241 27-217) (ligand) | 1 |
| rat GH WT (from UniProt P01244 27-216) (ligand) | > 200000 |
